Two substances from paper PMC12516131 can be followed below.

The stoichiometry N is a count of units in the complex or per binding partner. For orientation: Kd means a measure of binding affinity in units of concentration. Low values mean higher affinity, high ones lower affinity.

For assay [1], the target named is eGFP–POK2^2083–2440 (Arabidopsis thaliana). The experiment in a line: native gel or EMSA; blue native PAGE, 4–12% Tris-Glycine gels, 100 ng of each protein per lane, anti-GFP western blotting and silver staining; oligomeric state in solution. Background: In EMSA bound probe runs differently from free probe, usually more slowly.
Assay [2] concerns the target GMPCPP- and paclitaxel-stabilised microtubules (porcine brain tubulin) (porcine (brain tubulin)). The experiment in a line: single-molecule TIRF microscopy on microtubules; 2 nM eGFP–POK2^2083–2771 in PEM20-based Reaction Buffer on unlabelled stabilised microtubules (IRM); kymographs, landing rate and interaction times of diffusive particles.
Assay [3] shares this target. In words: TIRF microscopy microtubule binding assay; 10% rhodamine-labelled GMPCPP/paclitaxel microtubules immobilised on glass by anti-β-tubulin antibody; eGFP–POK2 fragment at increasing concentrations in PEM20-based Reaction Buffer (20 mM K-PIPES pH 6.9, 1 mM MgCl2, 1 mM EGTA, casein, 1 mM ATP, 5 mM DTT); intensity per microtubule length; Hill–Langmuir fit.

Consider “eGFP–POK2^2083–2440 (domain or fragment)”, for which, in assay [1], the stoichiometry N stood at 2.

With “eGFP–POK2^2083–2771–8×His (domain or fragment)”, in assay [2], the interaction time (subpopulation 1) is 0.9 s, the interaction time (subpopulation 2) amounted to 6 s, the interaction time (subpopulation 3) worked out at 43 s and the landing rate at 2 nM is 0.16 µm^−1 min^−1. In assay [3], this substance gave an equilibrium dissociation constant (Kd) of 106 nM.
